Read-outs that look alike come from different tables or passages of the source.
Experiments:
[1] = biological target: IL-23 alanine shave mutant M7 (human) (UniProt P29460); test: SPR Biacore T100, antibody captured on protein A, purified IL-23 variant, 1:1 Langmuir
[2] = biological target: IL-23 alanine shave mutant M10 (human) (UniProt P29460); test: as above
[3] = biological target: IL-23 alanine shave mutant M9 (human) (UniProt P29460); test: as above
[4] = biological target: IL-23 alanine shave mutant M5 (human) (UniProt P29460); test: as above
[5] = biological target: IL-23 H53A (human) (UniProt P29460); test: cell-based or functional assay
[6] = biological target: wild-type IL-23 (His-tagged p19 / non-tagged p40) (human) (UniProt P29460); test: cell-based or functional assay
[7] = biological target: IL-23 L116A (human) (UniProt P29460); test: cell-based or functional assay
[8] = biological target: IL-23 D118A (human) (UniProt P29460); test: cell-based or functional assay
[9] = biological target: IL-23 M54A (human) (UniProt P29460); test: cell-based or functional assay
[10] = biological target: IL-23 D55A (human) (UniProt P29460); test: cell-based or functional assay
[11] = biological target: IL-23 E112A (human) (UniProt P29460); test: cell-based or functional assay
[12] = biological target: IL-23 H53A (human) (UniProt P29460); test: SPR Biacore, antibody captured on protein A, single alanine mutants of IL-23
[13] = biological target: IL-23 L116A (human) (UniProt P29460); test: as above
[14] = biological target: IL-23 D118A (human) (UniProt P29460); test: as above
[15] = biological target: IL-23 M54A (human) (UniProt P29460); test: as above
[16] = biological target: IL-23 D55A (human) (UniProt P29460); test: as above
[17] = biological target: IL-23 E112A (human) (UniProt P29460); test: as above
[18] = biological target: IL-23 alanine shave mutant M7 (human) (UniProt P29460); test: cell-based or functional assay
[19] = biological target: IL-23 alanine shave mutant M10 (human) (UniProt P29460); test: cell-based or functional assay
[20] = biological target: wild-type IL-23 (His-tagged p19 / non-tagged p40) (human) (UniProt P29460); test: cell-based or functional assay; remark: listed apart in the source
[21] = biological target: IL-23 alanine shave mutant M9 (human) (UniProt P29460); test: cell-based or functional assay
[22] = biological target: IL-23 alanine shave mutant M5 (human) (UniProt P29460); test: cell-based or functional assay

Row | ΔΔG [1] [kcal/mol] | ΔΔG [2] [kcal/mol] | ΔΔG [3] [kcal/mol] | ΔΔG [4] [kcal/mol] | IC50, IL-23 variant-induced pSTAT3 in BaF3/huIL-23Ra/huIL-12Rb1 transfectants [5] | IC50, IL-23 variant-induced pSTAT3 in BaF3/huIL-23Ra/huIL-12Rb1 transfectants [6] | IC50, IL-23 variant-induced pSTAT3 in BaF3/huIL-23Ra/huIL-12Rb1 transfectants [7] | IC50, IL-23 variant-induced pSTAT3 in BaF3/huIL-23Ra/huIL-12Rb1 transfectants [8] | IC50, IL-23 variant-induced pSTAT3 in BaF3/huIL-23Ra/huIL-12Rb1 transfectants [9] | IC50, IL-23 variant-induced pSTAT3 in BaF3/huIL-23Ra/huIL-12Rb1 transfectants [10] | IC50, IL-23 variant-induced pSTAT3 in BaF3/huIL-23Ra/huIL-12Rb1 transfectants [11] | ΔΔG [12] [kcal/mol] | ΔΔG [13] [kcal/mol] | ΔΔG [14] [kcal/mol] | ΔΔG [15] [kcal/mol] | ΔΔG [16] [kcal/mol] | ΔΔG [17] [kcal/mol] | IC50, IL-23 variant-induced pSTAT3 in BaF3/huIL-23Ra/huIL-12Rb1 transfectants [18] [pM] | IC50, IL-23 variant-induced pSTAT3 in BaF3/huIL-23Ra/huIL-12Rb1 transfectants [19] [pM] | IC50, IL-23 variant-induced pSTAT3 in BaF3/huIL-23Ra/huIL-12Rb1 transfectants [20] [pM] | Substance | also measured
1 | 0.2 | 0.4 | 0.2 | 1.9 | 0.19 nM | 0.18 nM | 0.24 nM | 0.22 nM | 0.27 nM | 0.18 nM | > 3 nM | 0 | 0.2 | -0.3 | 1 | 0.7 | 1.7 | 310 | 350 | 380 | Merck's IL-23 p19 mAb (7G10) (antibody) | IC50, IL-23 variant-induced pSTAT3 in BaF3/huIL-23Ra/huIL-12Rb1 transfectants [21]: 260 pM
2 | 0.1 | 0.3 | 0.1 | 0.1 | 78 pM | 67 pM | 54 pM | 52 pM | 81 pM | 77 pM | 33 pM | 0.3 | 0.5 | -0.3 | 0.3 | 0.5 | 0.3 | 59 | 71 | 79 | STELARA (ustekinumab, IL-12/IL-23 p40 mAb) (antibody) | IC50, IL-23 variant-induced pSTAT3 in BaF3/huIL-23Ra/huIL-12Rb1 transfectants [21]: 67 pM; IC50, IL-23 variant-induced pSTAT3 in BaF3/huIL-23Ra/huIL-12Rb1 transfectants [22]: 62 pM

— patent US20170275357A1
